Assay [1] deals with T1, SARS-CoV S protein expressed on the cell surface (SARS-CoV, UniProt P59594 14-1255).
T1 construct: whole, on cells
The assay can be described thus: flow cytometry on CHO cells transfected with S protein.

Assay [2] deals with T2, SARS-CoV-2 S1 protein (SARS-CoV-2, UniProt P0DTC2 16-685).
T2 construct: domain: S1
The assay is described as follows: ELISA, coated protein. (In general: In an ELISA, binding on a coated surface is turned into a signal by an enzyme label.)

B1: fully human monoclonal antibody 76E1 (antibody, V domains shown)
VH: EVQLVESGGGVVQPGGSLRLSCEASGFSFKDYGMHWIRQTPGKGLEWISRISGDTRGTSYVDSVKGRFIVSRDNSRNSLFLQMNSLRSEDTALYYCAALVIVAAGDDFDLWGQGTVVTVSS
VL: QSALTQPLSVSGSPGQSVTISCTGSSSDIGSYNFVSWYRQYPGKAPKVMIYEVNKRPSGVPVRFSGSKSGNTASLTVSGLQHEDEADYYCCSYGGRNNLIFGGGTKLTVL
notes: also called 76E1 antibody
As for B1, the binding result in assay [1] is on record as “binds”; in assay [2] it was “no binding (tested: 10 µg/ml initial test concentration)”.
